Assay: soluble on expression in E. coli; label from the status in PepcDB or PDB records

Sequence	soluble on expression in E. coli
MQTKNKQGVLLVNLGTPDEPTAPAVKRFLSQFLHDHRVVDMTRWLWCPILHGVILPIRSPKVAKLYESVWMEEGSPLMVYSKRQAKKLAQHLDMPVELGMTYGNPSLQSGFEALIAQGVEEVIVLPLYPQYSGTTTAAVSDGITKAFKQLPVMPAFSFIRDYHDHPMYIEALAHSVRQYWEEHGKGDYLLCSYHGIPKRYADNGDIYPQHCEATTRLLGEALGLSSDQIGMAYQSRFGREEWLQPYTDKTLETITSKGVKKIDIMTPAFSSDCLETLEEIAGENKEIFMEAGGEQFHYIPCLNDDDMHIDMMAELVRSKL	not soluble
MQTQARPPVPQGPRFNHPATPQQVRRPINAPLPGQTAQIQGNRGPQPPKKKKRYADKLIQPKVRELVPESQAYMDLLAFEQKLDSTITRKKIDVQEALKRPQKIKKRLRIYISHTFIAGKEPEKEGDDASVPMWELRVEGRLLDDMQHPTVGANPRPAPKRKFSSFFKSLVIELDKDIYGPDNHLVEWHRTPQTNETDGFQVKRPGDRPVKCTILLLLDYQPMKFKLHPRLAKVLGIAAETRPRIIEALWQYIKTHKLQDPQDRDTINNDLFLEQCFGVSKMRFMEIPQRLHQLLQQPDPLVLNHIIQRPDDGQDKTSACYDIDVELEDPVKQQMANFVHNQTNANDIQLLDQKIFDLVDQINEMKLRRDFFLRFSNEPSGFIKKWVVSQNSDLKTLTESSGDGESDRYATTYSTTDTDEGVSRYMYQKIQQKRAELEQSLGIRNN	not soluble
MQTVGSFSEFLDDMVGRYGPRPAIQYRPRYRTLRWSYLELGTHAAKLASLLDEHGVGSGDRVFLSAENSPHWVAAFFAIAARGAVIVPLNPRSPPEQLANLVRSAGPSLVLASPRRRWEGPPLPVVDIERSGRVPSNRPATRTGPARLAEIIYTSGTTGDPKGVMLTHANLLSDLSAVARAIPLAPDDHVLSLVPLFHVYGQMTSLFCPLAAGCPVSYLTTPTTRSVLEALTHTPVTHLVAVPEVLKTMMDRLESRIGRIPGFLWPLLRGRIRARISGSLRTIVCGGAPLDPVVEEKWWALGFQVLQGYGLTETSPVIAANTPQAHRIGSVGKPLDEVELRIASDGEILVKGPMVMAGYFRDPARTEAAFADGWLKTGDAGRLDADGFLYVYGRKRYMILGPGGENVFPEDIEAVLNRTAGVTDCAVVGLESGGRTLVHAVLLADADEARAAAIVAEANRHLAPHQRIVSWSLWPEPDFPRSVTRKVKKDEVLGRLRREPSTQAVPVGRSTPLRLLLAQVAGTEAGALSDDTRLVPDLGLDSLLRIELVARIEEDLGVCLDEIDIGPLTTVADLENLLVRRQDRMPRVDAHPRWSLSPWASRLRPLAQKVFLQWWIAPFCRLRVSGLEHLAALDGPVIFMANHRSYLDSAVASFALPDRFRYRLAIAAATGVLYTRYRWAVPIGELSLNAFPLPSGPDENIRPGLELIGRLLDDGWNVLIFPEGQMNRGGLGIQPLRRGAGTIGVDMGVPVVPLVIEGTEKVMPPGRIVPRAAAPVSVRFGAPLRAGEAEPHGRMLARIEDALRRLLENSPLEHHHHHH	not soluble
MQVLLLEDEPRLGQAVARALAAQGYGVRWARSLGEAREAFLELEPDLMVLDVRLPEDEDGGFRFAKEAREAGYKGPILFLTARDALEDRVQGLDLGGDDYLVKPFHLEELLARVRALLRRASEVKASRVRLGPLEVDLAGRGVYLAGRRVDLSLKEFALLETLLLHPGRVFAPEELAERVFGDPEKVGAVKVYVHYLRQKLFPEVVRTVPGGYRLGHEP	soluble
MQVTHKILKIPSKGYRKILSLLNEKGQARLIGGCVRDALLDLLHNKTNKEEFEGDTERRIAMYINVREDSSTGSTYKLPLEASYPRDRLEKGSCDIDIATNLTPSEVTNILSGAKIKTIPTGLKFGTITATLNNEKFEITTLRKDIECNGRHAKVIFTNDFAEDAARRDFTINALSYCPFKNEIYDYFEGFKDLQQEKVVFIGEALDRIKEDYLRILRFFRFSSYYANQLDDGNFKACKALKDGLKTLSRERIKSEMDKIIVSKRAAQILKAMFEIGILELIFSIQNYEIKFFEQANDFKLELVTRYALLLYCQKDLNLKVFLDWKFSKHEAMQILSITNFLNDAKFNMKKIWFEKKNYKEYLLAARIIGKLNHSQVKEFILKYDALLRPKFQVNGNDLLNMNIEKKKIGAKLEYLKNFWIEQDFKPSKLELLAKL	soluble
MQVTSAEYLSNEESIKKGGNILMEKYNEKYNESIDGNKTLYKSYYESRRESIKNYNPDAKYINEIESIYMMLGEIYPNAPDFMSPHFEGDCSEGE	not soluble
MQWQELYRQRVCSADEAVVDSLKPGTKVVFGHAAAAPVRFSQAMYRQREKLENITVFHMLYFGDAPHLAPEMRSHVHPTLNFLEGNSRPASRDRRVDFIPCHFHEVPELFRQGFFPLDVAVVQVSTPNEEGYCSFGVSCDYTKAAAECAPVVVAEVNKQMPFIGGENLIHISKLTHIIEVDEPIAEVLPPAISDLELRIGQNCASLIKDGDTLQLGIGGIPDAVLRALEGHKDLGIHTEMFTDGVMRMIRKGIINGKKKTLHPEKVVTSLIFGSKELYDFVNNNPVIECYPGDYINNPDVIGKNDRMVSINSCLEMDLMGQAASESIGYEQFSGSGGQVDFLRGAKRSKGGISIMAFPSTAKKGTESRIVPILKEGACVTTGRNEVDYVVTEYGVARLRGATLRQRAEALTAIAHPDFRPALEEEIRRRFELEHHHHHH	soluble
MQYKGQGFQPVAEKSAIAHAKKYREEYEKLGEQFFKDNFSLNVKATNVVGSGDGVEVYVHCDDHDIVFNASIPFDKEAIHEEGSMRSNDNGDTMSNMVGTVLSGFEYKAQKEKYDNLTKFFKDNEEKYQYTGFTKEAIHKTQNVGYQNEYYYLAGNVTNINNYRKYYEPLIKKDSKNFKEGMKKANEATNFKAKIEVVSTLFSTKSDFTKNNSKKDLLFLSDDLYHYKEKPENTNITLQLSEPKINSTRAFYDANNPLEYGVHKHELEHHHHHH	not soluble
MQYNPLGKTDLRVSRLCLGCMTFGEPDRGNHAWTLPEESSRPIIKRALEGGINFFDTANSYSDGSSEEIVGRALRDFARREDVVVATKVFHRVGDLPEGLSRAQILRSIDDSLRRLGMDYVDILQIHRWDYNTPIEETLEALNDVVKAGKARYIGASSMHASQFAQALELQKQHGWAQFVSMQDHYNLIYREEEREMLPLCYQEGVAVIPWSPLARGRLTRPWGETTARLVSDEVGKNLYKESDENDAQIAERLTGVSEELGATRAQVALAWLLSKPGIAAPIIGTSREEQLDELLNAVDITLKPEQIAELETPYKPHPVVGFK	soluble
MQYPINEMFQTLQGEGYFTGVPAIFIRLQGCPVGCAWCDTKHTWDKLSDREVSLFSILAKTKESDKWGAASSEDLLAVINRQGYTARHVVITGGEPCIHDLMPLTDLLEKSGFSCQIETSGTHEVRCTPNTWVTVSPKVNMRGGYDVLSQALERANEIKHPVGRVRDIEALDELLATLSDDKPRVIALQPISQKEDATRLCIETCIARNWRLSMQTHKYLNIA	not soluble
MQYVKIKDSIVEQIEAGMLSPRQKLPAERKLAESFDTTRVTLREALSLLEAEGRIYREDRRGWFISPEPLRYDPTQTLNFPNMAKAQNRVPKTELIAAKGTLANKQSARLLQLQPFSDVFRVDRVRYLEDRPVVYVTNYIRPEIFPNLLSFDLTNSLTDIYREHFGVVYQKTRYRISTSTLLGEVAQALRATSGTPAMVVERTNYNQHGELIDCDIEYWRHDAISIESVAELNQ	not soluble
MRAGIYRRSAGQGAEEKPEAVRAGHRGGGERHHDHAHHDGEGEFVVREELLHGRSVRFRRRSERIDEHEHRQRDRGHAQPGADRGAPGRQRATTGDNVCDGTPGSPHRRVRRRRPAPAA	not soluble
MRAGVREVIDDSSERTLQQVIERAFLRTKGAIIRQKRVFGFVSAKGGDGGSCIAANFAFALSQEPDIHVLAVDISLPFGDLDMYLSGNTHSQDLADISNASDRLDKSLLDTMVQHISPSLDLIPSPATFEKIVNIEPERVSDLIHIAASFYDYIIVDFGASIDHVGVWVLEHLDELCIVTTPSLQSLRRAGQLLKLCKEFEKPISRIEIILNRADTNSRITSDEIEKVIGRPISKRIPQDEDAMQESLLSGQSVLKVAPKSQLSKTIVDWALHLNGVSRPNKRSIWERLKIK	not soluble
MRARGRLLPRLLRTNIQSSRFLVSLGHTNDVMSSHLCSLCHLDHHPHPTPPSSSSSSSSLSLCAWLSCVCVCVCVYMHTTYHTGLSTYQCSILQPPPSPSLSTHTFLCVYCVLAPSSPPCIMVDTSSSAPASASPAITTSAAATTPVVILVVGMAGTGKTTLVHRMQHYAHTNGIRSYFINLDPAVTHTPYNVNIDIRDSVRYGEVMKNYRLGPNGAIMTSLNLFATKIHQVVSLLEKKEEMLDWIIVDTPGQIEVFTWSASGQLMADSFGAVFPTVLLFVADTVRCVSSPQTFVSTMLYSSGIMLKQQVPLVVVFNKTDVVSADSVIAWMRDNDALDEAVTNPHRSNRSRRAVSGEPGDGEDADWRGEGTRIGAAALGSQDALLANQGSGYAGTLAQSMSLFLHEFYEDLPYAAVSAASGAGMSELAASIERGKQQALEAKAERSAH	not soluble
MRAVAEQARVKTLRIQPRAMALPPDELAECARTAVNEALADLRSAMPSDAGPGVDPAAALEYLNQVQVEGLRTLELVTGALEQAMAQIRQTAAAHGTPAPHGLHRIVEEVQQTLAAVSRPPQEAPDDLEGTAEAAQGRVRAVAEPGGRIRSLTVQARAMRSPSQELAEHIVTAVNNALDDLQAKTRRETEIVEIDQRRLDELRESAMRQSAEFMRSVSDMINSIQPR	not soluble
MRCILLGSGTSTGVPEVGCHCRVCRSEDRHDKRTRTSLLIITDAGKRILIDCSPDFRQQALFAGIDSLDAVLLTHEHFDHVGGLDDLRTICWHRELAVYAEQNVLDSIRDRLHYVFRKNPYPGTPLLKLCEVKPDMPFQVADLTVEPLRIMHGRLPILGYKIGEMAFLTDMKDIAAEEIECLKSCRLLFINGLRYRKEHPSHQTIEQAIDTIGQIGNPESVLIHLSHHAPLHQEHLEILPPHIHSGYDGLEAIIDEKGIRIKDFEPHVSRSEYHYQDCGRIGYESALTLQRKLFHDAVADKLENRKPQNTLLFCEHEPVLTLGKHGHEENLLLSESELKSRDIRLFHIERGGDITYHGPGQITGYPIFDLEQYGIGLRSYIEMLEQCIIDLIAIFGLKGERSAGASGVWLDPDIPGRTRKICAIGVKSSRHITMHGFALNVNTDLDYFKLINPCGFSDRGVTSISRELGREQDFILVKQQLEAVFRRNFGAL	not soluble
MRCIMTEDAQKLAIMEQDVKIVRALSKIKHKIVVMSGKGGVGKSTVTVKLAEEFSRNGYSVCVLDADVHGPDIPKMMRVREPEITLTGNLINPIPTPVGATVMSIEFFLPSEDTPVIWRGPKKTGAIRQLLADVNWEGIDVLIVDNPPGTGDEPLTVLQSIPGIDGVVIVTTPQEVSIHDVEKCINMVNHLKIPVLGIIENMSYLQCPECGKKVFLFGKDGGKYLADKFDLQFLGEIPFETGISGDNESSASSYINNEMVKIFNKLAKYLKDGGANLEHHHHHH	soluble
MREFGEKIKRLRLAKKISRSEFCGDESELSIRQLIRIENGESRPILTKLKYIAERLGVEDYKLMPSYIELDKEYLELKYFLMRTPTYEDETIAQKKESVFDKIFEEYYDRLPEEERFIIPNYSYLALTNYTVQKLPEKLVEILSFW	not soluble
MREHTLKNGMKLLMVERHTSPTVAAWIRFRVGSVDERSDERGIAHLLEHMLFKGTKTLGTKDYAAEKPLLDKIEETAQALIAEKAKGARADAGRVDELGKKLNALEADAGKYVIKEEFAEIYARNGGAGYNAMTGKDGTTYLINMPSNKLELWAAIEGDRMQNAVLREFYTERDVVMEERRRSYDTEPGSKLWETFVAVTYNAHPYGQPIIGWMSDLENLTRTKAEEFFRRYYKPNNAIVALVGDIDPDKTIALVEKYFGDIPPGTLVGPVAVVEPAQQGERRVEILADAEPELLVGFHKPTLPNPDDYVFDVIDMILADGRTSRLYKKLVVEKQLAAEVSTFSAPGSRYPNLFVLAATPRAPHTAKEVEDAIYEELERLKKEPMTERELAQILNRLEYEESRQMISNGGLARNLTEYEAVTGSWRYLIEHRKEVAKVTPDDVIRVARKYFVRENRTVGVITKKEDVK	not soluble

— the DeepSol protein solubility set
